Measured values from patent US20220235103A1.

B1: vS07_29B10 (designed binder)
chain: MRGSHHHHHHGSDLGKKLLQAARAGQLDEVRELLKAGADVNAKDREGITPLHLAAQHGHLEIVEVLLKAGADVNAKDVWGRTPLHLAAWQGHLEIVEVLLKAGADVNAKDLAGATPLHVAALYGHLEIVEVLLKAGADVNAQDKSGKTPADLAARAGHQDIAEVLQKAA
B2: vS07_23E04 (designed binder)
chain: MRGSHHHHHHGSDLGKKLLQAARAGQLDEVRELLKAGADVNAKDQEGITPLHVAAHQGHLEIVEVLLKAGADVNAKDVWGRTPLHLAAWRGHLEIVEVLLKAGADVNAKDHAGATPLHAAALSGHLEIVEVLLKAGADVNAQDKSGKTPADLAARAGHQDIAEVLQKAA
B3: vS07_12C06 (designed binder)
chain: MRGSHHHHHHGSDLGKKLLQAARAGQLDEVRELLKAGADVNAKDREGKTPLHVAAQEGHLEIVEVLLKAGADVNAKDVWGRTPLHLAAWIGHLEIVEVLLKAGADVNAKDVSGATPLHAAALHGHLEIVEVLLNAGADVNAQDKSGKTPADLAARAGHQDIAEVLQKAA
B4: ALE049 (designed binder)
chain: MRGSHHHHHHGSDLGKKLLEAARAGQDDEVRELLKAGADVNAKDYFSHTPLHLAARNGHLKIVEVLLKAGADVNAKDFAGKTPLHLAANEGHLEIVEVLLKAGADVNAQDIFGKTPADIAADAGHEDIAEVLQKAAGSPTPTPTTPTPTPTTPTPTPTGSDLGKKLLEAARAGQDDEVRELLKAGADVNAKDYFSHTPLHLAARNGHLKIVEVLLKAGADVNAKDFAGKTPLHLAANEGHLEIVEVLLKAGADVNAQDIFGKTPADIAADAGHEDIAEVLQKAAGSPTPTPTTPTPTPTTPTPTPTGSDLGKKLLQAARAGQLDEVRELLKAGADVNAKDREGITPLHLAAQHGHLEIVEVLLKAGADVNAKDVWGRTPLHLAAWQGHLEIVEVLLKAGADVNAKDLAGATPLHVAALYGHLEIVEVLLKAGADVNAQDKSGKTPADLAARAGHQDIAEVLQKAAGSPTPTPTTPTPTPTTPTPTPTGSDLGKKLLQAARAGQLDEVRELLKAGADVNAKDREGKTPLHVAAQEGHLEIVEVLLKAGADVNAKDVWGRTPLHLAAWIGHLEIVEVLLKAGADVNAKDVSGATPLHAAALHGHLEIVEVLLNAGADVNAQDKSGKTPADLAARAGHQDIAEVLQKAAGSPTPTPTTPTPTPTTPTPTPTGSDLGKKLLQAARAGQLDEVRELLKAGADVNAKDQEGITPLHVAAHQGHLEIVEVLLKAGADVNAKDVWGRTPLHLAAWRGHLEIVEVLLKAGADVNAKDHAGATPLHAAALSGHLEIVEVLLKAGADVNAQDKSGKTPADLAARAGHQDIAEVLQKAA

What follows are binders tested against SARS-CoV-2 spike protein variant B.1.1.7 (SARS-CoV-2), P0DTC2 (assay: cell-based or functional assay).

| Binder | VSV Pseudotype Neutralization Assay IC50 |
| --- | --- |
| B1 | 4.6 ng/mL |
| B2 | 11.7 ng/mL |
| B3 | 5.4 ng/mL |
| B4 | 1.7 ng/mL |
